{
  "source": "paper PMC7522120",
  "origin": "cited, not measured here",
  "biological_target": "Folate receptor alpha (Homo sapiens) (UniProt P15328)",
  "sequence (P15328 25-234)": "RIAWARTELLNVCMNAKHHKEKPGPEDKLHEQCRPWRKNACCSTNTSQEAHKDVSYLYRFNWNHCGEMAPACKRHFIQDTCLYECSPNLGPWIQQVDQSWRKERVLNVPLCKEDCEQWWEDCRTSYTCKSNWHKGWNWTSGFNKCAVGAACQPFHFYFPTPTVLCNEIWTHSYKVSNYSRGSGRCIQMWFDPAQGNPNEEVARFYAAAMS",
  "data": [
    {"substance": "farletuzumab", "values": [
      {"measurement": "Kd", "value": 2, "unit": "nM"}
    ]}
  ]
}
